Holding throughout (assay): SPR
Experiment [1] deals with T1, LILRB1 D1D4 (complete extracellular domain of LILRB1) (human, UniProt Q8NHL6 24-417).
Experiment [2] deals with T1, LILRB1 D1D4 (complete extracellular …). This is another data set of the same source.
The target in experiment [3] is T2, LILRB1 D1D2 (human, UniProt Q8NHL6 24-221).
Experiment [4] deals with T2, LILRB1 D1D2. This is another data set of the same source.

For three molecules, Kd, koff and kon results are on record in article PMC7116854 (Nature, 2020).

Read-outs that look alike come from different tables or passages of the source.

T2 sequence (Q8NHL6 24-221): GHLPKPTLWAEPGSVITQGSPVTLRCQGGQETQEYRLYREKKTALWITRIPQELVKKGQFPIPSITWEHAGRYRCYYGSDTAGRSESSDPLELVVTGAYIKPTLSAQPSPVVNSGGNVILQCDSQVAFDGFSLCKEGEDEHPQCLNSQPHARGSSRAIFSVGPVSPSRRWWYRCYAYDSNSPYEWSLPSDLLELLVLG
T1 sequence (Q8NHL6 24-417): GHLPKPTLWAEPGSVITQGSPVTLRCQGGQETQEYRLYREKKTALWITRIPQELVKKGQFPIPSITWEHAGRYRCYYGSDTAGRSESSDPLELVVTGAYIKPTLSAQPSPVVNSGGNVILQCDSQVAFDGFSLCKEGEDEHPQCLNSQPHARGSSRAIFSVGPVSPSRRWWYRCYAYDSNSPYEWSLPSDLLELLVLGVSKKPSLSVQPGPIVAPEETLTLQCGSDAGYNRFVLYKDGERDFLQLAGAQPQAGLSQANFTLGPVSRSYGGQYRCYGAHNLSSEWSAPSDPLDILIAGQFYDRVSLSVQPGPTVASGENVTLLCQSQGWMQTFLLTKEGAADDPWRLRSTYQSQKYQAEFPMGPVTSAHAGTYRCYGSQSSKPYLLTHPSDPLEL

B1: RIFIN PF3D7_1254800 variable region (residues 165-274) (domain or fragment)
chain: NYETINAFIAKTIEELEGIPGITKLFGAKISQFVTPAVFRKPMSLVETILSEKKKLCLCAANKNELLCRGMNPNVPETLPKKIEVAVNEVLSSVNDTWATATTPTTFFTN
In general, Kd refers to the free concentration of one partner at which half of the binding sites on the other are occupied at equilibrium, for simple one-to-one binding. Read a low Kd as higher affinity. Broadly, the koff is the rate constant with which the complex falls apart. Low readings indicate a long-lived complex, high ones a short-lived complex. As usually defined, the kon is a measure of how fast the partners come together. A high value points to faster complex formation. B1 yielded a dissociation constant (Kd) in experiment [1] of 570 ± 130 nM. In experiment [2], this molecule had a Kd of 1130 nM, a koff of 0.297 s⁻¹ and a kon of 263000 M⁻¹ s⁻¹.

B2: RIFIN PF3D7_0100400 variable region (165-329) (domain or fragment)
chain: VWKTTEIAAAMELAKQAGAAAGLKAGHLAGTNAVIEQLRTLGIYFVGDKLLETIIDVTNYMNVSFIYDKVYSHYTTSCTPSLVNDQLVGTFNTSDPFCNLVHSNLQGSFYRSSAQTIIYEKVEEAVAGAEQAATTKTAVMTPIYTTEFTAKNIAEVEAATTSYYT
The molecule B2 came in with a Kd in experiment [1] of 4400 ± 3200 nM. Besides, in experiment [2], binding was put at a Kd of 14500 nM, the koff amounted to 0.0592 s⁻¹ and the kon is 4100 M⁻¹ s⁻¹.

B3: RIFIN PF3D7_1254800 variable region C223S (165-261) (domain or fragment)
chain: NYETINAFIAKTIEELEGIPGITKLFGAKISQFVTPAVFRKPMSLVETILSEKKKLCLSAANKNELLCRGMNPNVPETLPKKIEVAVNEVLSSVNDT
For B3, the Kd was determined as 700 ± 5 nM in experiment [1], 1100 ± 50 nM with LILRB1 D1D2 [3], 1040 nM in experiment [2] and 1330 nM with LILRB1 D1D2 [4]. In addition, the koff amounted to 0.299 s⁻¹ in experiment [2] and 0.579 s⁻¹ with LILRB1 D1D2 [4]. The values for the kon (in experiment [2]; in the experiment with LILRB1 D1D2 [4]) were 288000 M⁻¹ s⁻¹ and 437000 M⁻¹ s⁻¹, respectively.
